T1: Mouse OX40 (mouse, UniProt P47741 20-272)
T1 construct: also called mOX40; murine OX40
T1 sequence: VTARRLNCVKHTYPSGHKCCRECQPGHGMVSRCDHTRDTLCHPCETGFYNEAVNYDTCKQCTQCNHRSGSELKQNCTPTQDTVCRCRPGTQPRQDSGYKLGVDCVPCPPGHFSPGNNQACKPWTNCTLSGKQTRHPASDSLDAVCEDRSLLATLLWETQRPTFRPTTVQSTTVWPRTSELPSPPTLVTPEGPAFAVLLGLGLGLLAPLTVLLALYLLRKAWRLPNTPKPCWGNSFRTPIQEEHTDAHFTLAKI

T2: Recombinant human TNFRSF16 (NGFR) (human, UniProt P08138 29-250)
T2 construct: Plate-adsorbed antigen of the ELISA
T2 sequence (looked up): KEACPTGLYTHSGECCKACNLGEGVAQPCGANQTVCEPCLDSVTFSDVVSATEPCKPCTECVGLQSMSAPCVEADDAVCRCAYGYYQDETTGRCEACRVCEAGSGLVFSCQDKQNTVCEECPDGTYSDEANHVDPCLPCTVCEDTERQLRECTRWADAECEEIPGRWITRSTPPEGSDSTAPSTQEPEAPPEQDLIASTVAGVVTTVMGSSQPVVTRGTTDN

T3: Recombinant human TNFRSF1β (TNFRII) (human, UniProt P20333 23-257)
T3 construct: Plate-adsorbed antigen of the ELISA; also called TNFR2; TNFRSF1B
T3 sequence (looked up): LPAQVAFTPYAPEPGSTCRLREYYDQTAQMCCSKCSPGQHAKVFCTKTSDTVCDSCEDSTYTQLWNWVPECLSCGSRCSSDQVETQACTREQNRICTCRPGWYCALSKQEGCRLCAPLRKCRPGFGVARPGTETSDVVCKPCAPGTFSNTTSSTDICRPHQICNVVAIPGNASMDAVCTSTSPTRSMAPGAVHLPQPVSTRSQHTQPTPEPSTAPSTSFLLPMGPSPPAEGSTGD

T4: Recombinant human TNFRSF18 (GITR) (human, UniProt Q9Y5U5 26-162, limits assumed)
T4 construct: Plate-adsorbed antigen of the ELISA
T4 sequence (looked up): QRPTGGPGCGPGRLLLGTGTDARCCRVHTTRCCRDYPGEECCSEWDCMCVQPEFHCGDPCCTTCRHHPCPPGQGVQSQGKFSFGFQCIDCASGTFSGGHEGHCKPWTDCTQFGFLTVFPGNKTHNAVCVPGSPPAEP

T5: Recombinant human TNFRSF14 (HVEM) (human, UniProt Q92956 39-202, limits assumed)
T5 construct: Plate-adsorbed antigen of the ELISA
T5 sequence (looked up): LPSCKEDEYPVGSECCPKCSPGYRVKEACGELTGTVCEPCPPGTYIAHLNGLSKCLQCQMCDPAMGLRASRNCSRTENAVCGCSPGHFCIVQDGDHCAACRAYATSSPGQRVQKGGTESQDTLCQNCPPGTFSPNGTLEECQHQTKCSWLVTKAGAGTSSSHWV

T6: Recombinant human TNFRSF21 (DR6) (human, UniProt O75509 42-349, limits assumed)
T6 construct: Plate-adsorbed antigen of the ELISA
T6 sequence (looked up): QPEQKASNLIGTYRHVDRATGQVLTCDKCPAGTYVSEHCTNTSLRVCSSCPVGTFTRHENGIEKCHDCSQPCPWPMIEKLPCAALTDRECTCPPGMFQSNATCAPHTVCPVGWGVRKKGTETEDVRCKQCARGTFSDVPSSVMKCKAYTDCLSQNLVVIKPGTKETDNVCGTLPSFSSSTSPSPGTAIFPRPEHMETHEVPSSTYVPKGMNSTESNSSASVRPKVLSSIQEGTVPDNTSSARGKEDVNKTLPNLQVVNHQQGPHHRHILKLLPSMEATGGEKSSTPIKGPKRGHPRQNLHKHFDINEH

T7: Recombinant human TNFRSF11B (OPG) (human, UniProt O00300 22-401, limits assumed)
T7 construct: Plate-adsorbed antigen of the ELISA; also called osteoprotegerin
T7 sequence (looked up): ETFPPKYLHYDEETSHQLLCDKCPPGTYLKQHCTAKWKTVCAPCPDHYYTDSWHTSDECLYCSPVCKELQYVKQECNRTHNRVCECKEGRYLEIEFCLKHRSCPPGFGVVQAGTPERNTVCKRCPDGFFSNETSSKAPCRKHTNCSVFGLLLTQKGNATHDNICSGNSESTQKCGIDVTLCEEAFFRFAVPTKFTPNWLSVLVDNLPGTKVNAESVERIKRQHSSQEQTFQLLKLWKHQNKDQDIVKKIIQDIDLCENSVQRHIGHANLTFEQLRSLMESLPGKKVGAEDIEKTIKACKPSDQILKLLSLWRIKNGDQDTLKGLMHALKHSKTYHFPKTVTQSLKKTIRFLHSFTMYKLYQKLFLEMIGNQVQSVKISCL

T8: Recombinant human TNFRSF11A (RANK) (human, UniProt Q9Y6Q6 30-212)
T8 construct: Plate-adsorbed antigen of the ELISA; also called CD265
T8 sequence (looked up): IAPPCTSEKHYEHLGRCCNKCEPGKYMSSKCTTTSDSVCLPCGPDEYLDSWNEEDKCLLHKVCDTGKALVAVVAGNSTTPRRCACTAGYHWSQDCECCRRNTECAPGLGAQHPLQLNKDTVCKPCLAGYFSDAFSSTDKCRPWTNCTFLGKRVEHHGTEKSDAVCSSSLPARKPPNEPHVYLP

T9: Recombinant human TNFRSF6 (FAS) (human, UniProt P25445 26-173)
T9 construct: Plate-adsorbed antigen of the ELISA
T9 sequence (looked up): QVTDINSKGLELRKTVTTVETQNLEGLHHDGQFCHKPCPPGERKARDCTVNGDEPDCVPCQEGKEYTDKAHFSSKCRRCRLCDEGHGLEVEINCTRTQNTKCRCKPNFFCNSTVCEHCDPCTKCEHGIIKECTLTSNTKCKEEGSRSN


Assays:
[1] = molecular target: T1, Mouse OX40; experiment: flow cytometry on activated primary mouse CD4+ T cells
Procedure: Mouse CD4⁺ T cells (150,000 per well in 100 μL complete medium) were cultured overnight in 96-well plates coated with 2 μg/mL each hamster anti-mouse CD3 and hamster anti-mouse CD28 antibodies to activate T cells and induce OX40 expression. Activated CD4⁺ T cells were removed from the incubation plate and 100,000 cells were transferred to each well of a non-tissue culture-treated 96-well round-bottom plate for binding assays and washed once with FACS buffer. Binding was performed with 10 μg/mL of OX40mAb24, 9B12 and rat anti-mouse OX40, clone OX86 (positive control) antibodies each serially diluted 3-fold in FACS buffer for a 10-point data curve. For negative controls, 10 μg/mL R347 human IgG1, MOPC-21 mouse IgG1 or RTK2071 rat IgG1 were diluted 6-fold for a 3 point data curve. FACS buffer (50 μL) containing OX40mAb24, or antibodies, was added to CD4⁺ T cells in duplicate and incubated. Following primary incubation, cells were washed with 200 μL of 4° C. […] Following secondary antibody incubation, cells were washed with 4° C. FACS buffer (200 μL per wash) and suspended in 100 μL FACS buffer for flow cytometry analysis on a BD LSRII flow cytometer as described in Section 2.3.

[2] = molecular target: T2, Recombinant human TNFRSF16 (NGFR); experiment: ELISA, plate coated with a dilution series of the recombinant TNFRSF protein [panel A]
Procedure: (§1) An eight point, two-fold dilution series of each recombinant human TNFRSF protein was prepared after dilution of stock proteins to 5 μg/mL in PBS. Subsequently, 50 μL of each antigen dilution was transferred in duplicate to wells of a Nunc 96-well MaxiSorp flat bottom plate, and incubated overnight at 4° C. to adsorb proteins to the plate. Afterwards, plates were washed three times with PBS in a BioTek® plate washer to remove unbound protein. Anti OX40 mAb29, 9B12, and control antibodies were diluted in PBS to a final concentration of 10 μg/mL, and 50 μL of mAb were added to each well and incubated at room temperature for one hour to bind mAb to plate-bound protein. Thereafter, wells were washed with PBS/Tween-20 0.1% (volume/volume) using a BioTek® plate washer. HRP conjugated goat anti-human or goat anti-mouse secondary antibodies at 10 μg/mL was added to each well and incubated at room temperature for 1 hour. After three washes in PBS/Tween-20 0.1%, 50 μL of TMB substrate was added to each well and incubated at room temperature for 5 minutes to develop the colorimetric product. Reactions were stopped by adding 50 μL of 0.5 molar H₂SO₄ to wells, and plates read immediately at 450 nm using an Envision C plate reader for detection of the colorimetric product.

[3] = molecular target: T10, Recombinant human TNFRSF3 (LTβR) (human, UniProt P36941 28-227, limits assumed); experiment: as above
T10 construct: Plate-adsorbed antigen of the ELISA
T10 sequence (P36941 28-227 limits assumed): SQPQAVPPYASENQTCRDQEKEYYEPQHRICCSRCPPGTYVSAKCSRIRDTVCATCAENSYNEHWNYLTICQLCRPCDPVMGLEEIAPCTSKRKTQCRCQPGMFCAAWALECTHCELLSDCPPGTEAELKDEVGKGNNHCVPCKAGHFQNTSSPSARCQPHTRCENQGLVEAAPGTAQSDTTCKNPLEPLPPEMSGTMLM
Procedure: as §1

[4] = molecular target: T3, Recombinant human TNFRSF1β (TNFRII); experiment: as above
Procedure: as §1

[5] = molecular target: T4, Recombinant human TNFRSF18 (GITR); experiment: as above
Procedure: as §1

[6] = molecular target: T11, Recombinant human TNFRSF9 (CD137) (human, UniProt Q07011 24-186, limits assumed); experiment: as above
T11 construct: Plate-adsorbed antigen of the ELISA
Procedure: as §1

[7] = molecular target: T5, Recombinant human TNFRSF14 (HVEM); experiment: as above
Procedure: as §1

[8] = molecular target: T6, Recombinant human TNFRSF21 (DR6); experiment: as above
Procedure: as §1

[9] = molecular target: T7, Recombinant human TNFRSF11B (OPG); experiment: as above
Procedure: as §1

[10] = molecular target: T8, Recombinant human TNFRSF11A (RANK); experiment: as above
Procedure: as §1

[11] = molecular target: T9, Recombinant human TNFRSF6 (FAS); experiment: as above
Procedure: as §1

[12] = molecular target: T12, Recombinant human TNFRSF5 (CD40) (human, UniProt P25942 21-193); experiment: as above
T12 construct: Plate-adsorbed antigen of the ELISA
T12 sequence (P25942 21-193 limits assumed): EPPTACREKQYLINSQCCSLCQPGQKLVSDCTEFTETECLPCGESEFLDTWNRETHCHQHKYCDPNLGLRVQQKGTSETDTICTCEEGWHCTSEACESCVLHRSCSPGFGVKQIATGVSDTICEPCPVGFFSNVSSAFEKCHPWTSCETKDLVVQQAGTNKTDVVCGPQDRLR
Procedure: as §1

| binding result [1] | binding result [2] | binding result [3] | binding result [4] | binding result [5] | binding result [6] | binding result [7] | binding result [8] | binding result [9] | binding result [10] | binding result [11] | binding result [12] | Binder |
| --- | --- | --- | --- | --- | --- | --- | --- | --- | --- | --- | --- | --- |
| binds |  |  |  |  |  |  |  |  |  |  |  | Rat anti-mouse OX40, clone OX86 (antibody, V domains shown, Rat IgG1κ; also called anti-mouse CD134 (OX86 clone) antibody) VH: QVQLKESGPGLVQPSQTLSLTCTVSGFSLTGYNLHWVRQPPGKGLEWMGRMRYDGDTYYNSVLKSRLSISRDTSKNQVFLKMNSLQTDDTAIYYCTRDGRGDSFDYWGQGVMVTVSS VL: DIVMTQGALPNPVPSGESASITCRSSQSLVYKDGQTYLNWFLQRPGQSPQLLTYWMSTRASGVSDRFSGSGSGTYFTLKISRVRAEDAGVYYCQQVREYPFTFGSGTKLEIK |
|  | no binding | no binding | no binding | no binding | no binding | no binding | no binding | no binding | no binding | no binding | no binding | OX40mAb29 (antibody, human IgG1, kappa, also called Anti OX40 mAb29; IgG1 triple mutant (IgG1-TM) version of OX40mAb24) heavy: QVQLQESGPGLVKPSQTLSLTCAVYGGSFSSGYWNWIRKHPGKGLEYIGYISYNGITYHNPSLKSRITINRDTSKNQYSLQLNSVTPEDTAVYYCARYKYDYDGGHAMDYWGQGTLVTVSSASTKGPSVFPLAPSSKSTSGGTAALGCLVKDYFPEPVTVSWNSGALTSGVHTFPAVLQSSGLYSLSSVVTVPSSSLGTQTYICNVNHKPSNTKVDKRVEPKSCDKTHTCPPCPAPEFEGGPSVFLFPPKPKDTLMISRTPEVTCVVVDVSHEDPEVKFNWYVDGVEVHNAKTKPREEQYNSTYRVVSVLTVLHQDWLNGKEYKCKVSNKALPASIEKTISKAKGQPREPQVYTLPPSREEMTKNQVSLTCLVKGFYPSDIAVEWESNGQPENNYKTTPPVLDSDGSFFLYSKLTVDKSRWQQGNVFSCSVMHEALHNHYTQKSLSLSPGK light: not shown |

Reference: patent US20160137740A1 (AstraZeneca / MedImmune, published 2016)
